Data from US20170081379A1.

Target: recombinant HDM2 17-125 (human) (UniProt Q00987)
Assay: fluorescence polarization, FITC-labeled peptide with HDM2 17-125

Chain of recombinant HDM2 17-125 (human) (Q00987 17-125 limits assumed): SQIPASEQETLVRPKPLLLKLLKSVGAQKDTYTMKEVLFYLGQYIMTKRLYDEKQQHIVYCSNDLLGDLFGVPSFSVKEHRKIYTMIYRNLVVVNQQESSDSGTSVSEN

Kd: > 4 µM
Substance: FITC-SAH-p53-8F19A (peptide)
